Reference: patent US9266940 (Novo Nordisk, dated 2016)
Numbered stars: 1 amine (or outer) side, 2 acyl side, 3 side chain; on linkers, the order of the positions; unused ones are H or OH. Square brackets hold non-standard residues; d marks the D form. Side chains are listed from the residue outwards. Ends that are not written are not given here. * marks the point of attachment. Decanoyl(10-(4-HOOC-PhO)) = O=C(O)c1ccc(OCCCCCCCCCC(=O)*)cc1; d(γGlu) = O=C(O)[C@@H](CCC(=O)[*:2])N[*:1]; γGlu = O=C(O)[C@H](CCC(=O)[*:2])N[*:1]; C14 diacid = O=C(O)CCCCCCCCCCCCC(=O)*; AEEA = NCCOCCOCC(=O)O; Aib = CC(C)(N)C(=O)O

B1: N^ε27-[2-[2-[2-[[2-[2-[2-[[(4S)-4-carboxy-4-[10-(4-carboxyphenoxy)decanoylamino]butanoyl]amino]ethoxy]ethoxy]acetyl]amino]ethoxy]ethoxy]acetyl], … (peptide)
peptide: HAEGTFTSDVSSYLEEQAVRK([AEEA-AEEA-γGlu-Decanoyl(10-(4-HOOC-PhO))])FIAWLVRGRK([AEEA-AEEA-γGlu-Decanoyl(10-(4-HOOC-PhO))])
B2: N^ε27-[2-[2-[2-[[2-[2-[2-[[(4S)-4-carboxy-4-[10-(4-carboxyphenoxy)decanoylamino]butanoyl]amino]ethoxy]ethoxy]acetyl]amino]ethoxy]ethoxy]acetyl], … (peptide)
peptide: HAEGTFTSDVSSYLEEQAARK([AEEA-AEEA-γGlu-Decanoyl(10-(4-HOOC-PhO))])FIAWLVRGRK([AEEA-AEEA-γGlu-Decanoyl(10-(4-HOOC-PhO))])
B3: N^ε22-[2-[2-[2-[[2-[2-[2-[[(4S)-4-carboxy-4-(13-carboxytridecanoylamino)butanoyl]amino]ethoxy]ethoxy]acetyl]amino]ethoxy]ethoxy]acetyl], … (peptide)
peptide: HAEGTFTSDVSSYLEK([AEEA-AEEA-γGlu-C14 diacid])QAVRK([AEEA-AEEA-γGlu-C14 diacid])FIEWLVQGRG
notes: also called 11
B4: N^ε24-[2-[2-[2-[[2-[2-[2-[[(4S)-4-carboxy-4-(13-carboxytridecanoylamino)butanoyl]amino]ethoxy]ethoxy]acetyl]amino]ethoxy]ethoxy]acetyl], … (peptide)
peptide: HAEGTFTSDVSSYLEEQK([AEEA-AEEA-γGlu-C14 diacid])VRK([AEEA-AEEA-γGlu-C14 diacid])FIAHLVRGRG
notes: also called 24
B5: N^ε27-[2-[2-[2-[[2-[2-[2-[[(4S)-4-carboxy-4-(13-carboxytridecanoylamino)butanoyl]amino]ethoxy]ethoxy]acetyl]amino]ethoxy]ethoxy]acetyl], … (peptide)
peptide: HAEGTFTSDVSSYLEEEAVRK([AEEA-AEEA-γGlu-C14 diacid])FIAHLVQGRK([AEEA-AEEA-γGlu-C14 diacid])
notes: also called 17
B6: N^ε27-[2-[2-[2-[[2-[2-[2-[[(4S)-4-carboxy-4-(13-carboxytridecanoylamino)butanoyl]amino]ethoxy]ethoxy]acetyl]amino]ethoxy]ethoxy]acetyl], … (peptide)
peptide: HAEGTFTSDVSSYLEGQAVRK([AEEA-AEEA-γGlu-C14 diacid])FIAHLVQGRK([AEEA-AEEA-γGlu-C14 diacid])
notes: also called 16
B7: N^ε24-[2-[2-[2-[[2-[2-[2-[[(4S)-4-carboxy-4-[10-(4-carboxyphenoxy)decanoylamino]butanoyl]amino]ethoxy]ethoxy]acetyl]amino]ethoxy]ethoxy]acetyl], … (peptide)
peptide: HAEGTFTSDVSSYLEEQK([AEEA-AEEA-γGlu-Decanoyl(10-(4-HOOC-PhO))])VRK([AEEA-AEEA-γGlu-Decanoyl(10-(4-HOOC-PhO))])FIAWLVRGRG
notes: also called 28
B8: N^ε22-[(4S)-4-carboxy-4-[[2-[2-[2-[[2-[2-[2-(13-carboxytridecanoylamino)ethoxy]ethoxy]acetyl]amino]ethoxy]ethoxy]acetyl]amino]butanoyl], … (peptide)
peptide: HAEGTFTSDVSSYLEK([γGlu-AEEA-AEEA-C14 diacid])QAVRK([γGlu-AEEA-AEEA-C14 diacid])FIEWLVQGRG
notes: also called 20
B9: N^ε27-[2-[2-[2-[[2-[2-[2-[[(4S)-4-carboxy-4-[[(4S)-4-carboxy-4-[10-(4-carboxyphenoxy)decanoylamino]butanoyl]amino]butanoyl]amino]ethoxy]ethoxy]acetyl]amino]etho … (peptide)
peptide: HAEGTFTSDVSSYLEGQAVRK([AEEA-AEEA-γGlu-γGlu-Decanoyl(10-(4-HOOC-PhO))])FIAWLVQGK([AEEA-AEEA-γGlu-γGlu-Decanoyl(10-(4-HOOC-PhO))])G
notes: also called 23
B10: N^ε27-[(4S)-4-carboxy-4-[[2-[2-[2-[[2-[2-[2-[[(4R)-4-carboxy-4-[10-(4-carboxyphenoxy)decanoylamino]butanoyl]amino]ethoxy]ethoxy]acetyl]amino]ethoxy]ethoxy]acety … (peptide)
peptide: HAEGTFTSDVSSYLEGQAVRK([γGlu-AEEA-AEEA-d(γGlu)-Decanoyl(10-(4-HOOC-PhO))])FIAWLVQGK([γGlu-AEEA-AEEA-d(γGlu)-Decanoyl(10-(4-HOOC-PhO))])G
notes: also called 26
B11: N^ε22-[2-[2-[2-[[2-[2-[2-[[(4S)-4-carboxy-4-(13-carboxytridecanoylamino)butanoyl]amino]ethoxy]ethoxy]acetyl]amino]ethoxy]ethoxy]acetyl], … (peptide)
peptide: H[Aib]EGTFTSDVSSYLEK([AEEA-AEEA-γGlu-C14 diacid])QAARK([AEEA-AEEA-γGlu-C14 diacid])FIAHLVG
notes: also called 19

Biological target: T1, human GLP-1 receptor (human, UniProt P43220 24-463)
Assay: cell-based or functional assay

Q: B1 was tested. Which “EC50/pM (in vitro potency, cAMP formation, AlphaScreen)” value (shortened to “EC50/pM”) did it give?
A: 143 pM

Q: For B2, which “EC50/pM” value is on record?
A: 26 pM

Q: B3 was tested. Which “EC50/pM” value did it give?
A: 81 pM

Q: With B4 as the binder, how does the “EC50/pM” value read?
A: 70 pM

Q: With B5 as the binder, how does the “EC50/pM” value read?
A: 17 pM

Q: How did the “EC50/pM” value turn out when B6 was run?
A: 21 pM

Q: How did the “EC50/pM” value turn out when B7 was run?
A: 68 pM

Q: For B8, which “EC50/pM” value is on record?
A: 67 pM

Q: With B9 as the binder, how does the “EC50/pM” value read?
A: 140 pM

Q: For B10, which “EC50/pM” value is on record?
A: 200 pM

Q: Which “EC50/pM” value does the source give for B11 here?
A: 52 pM

Biological target: T1, human GLP-1 receptor
Assay: SPA displacement assay; IC50 at 2.0% HSA over IC50 at 0.001% HSA
Description: (§1) A shift in the binding affinity, $IC50$, is an indication that the peptide in question binds to albumin, and thereby a prediction of a potential protracted pharmacokinetic profile of the peptide in question in animal models.
(§2) 50 ul (micro liter) HSA ("high albumin" experiment containing 2% HSA), or buffer ("low albumin" experiment containing 0.001% HSA), was added to Optiplate, and 25 ul of test compounds were added. 5-10 ug membrane protein/sample was added (50 ul) corresponding to 0.1-0.2 mg protein/ml (to be preferably optimised for each membrane preparation). SPA-particles (Wheatgerm agglutinin SPA beads, Perkin Elmer, #RPNQ0001) were added in an amount of 0.5 mg/well (50 ul). […] The plates were sealed with PlateSealer and incubated for 120 minutes at 30° C. while shaking. The plates were centrifuged (1500 rpm, 10 min) and counted in Topcounter.

Q: Which “Ratio [(IC50/nM) high HSA]/[(IC50/nM) low HSA]” value (“Ratio” for short) does the source give for B1 here?
A: 217

Q: How did the “Ratio” value turn out when B2 was run?
A: 219

Q: B3 was tested. Which “Ratio” value did it give?
A: 926

Q: How did the “Ratio” value turn out when B4 was run?
A: 18

Q: For B5, which “Ratio” value is on record?
A: 387

Q: How did the “Ratio” value turn out when B6 was run?
A: 127

Q: Which “Ratio” value does the source give for B7 here?
A: 144

Q: How did the “Ratio” value turn out when B8 was run?
A: 1750

Q: For B9, which “Ratio” value is on record?
A: 47

Q: With B10 as the binder, how does the “Ratio” value read?
A: 143

Q: With B11 as the binder, how does the “Ratio” value read?
A: 60

Biological target: T1, human GLP-1 receptor
Assay: SPA, displacement of 125I-GLP-1(7-36)NH2 from hGLP-1R BHK membranes, high HSA (2.0%)
Description: as §1, §2

Q: Which IC50 does the source give for B1 here?
A: 33 nM

Q: For B2, which IC50 is on record?
A: 42 nM

Q: Which IC50 does the source give for B3 here?
A: 213 nM

Q: B4 was tested. Which IC50 did it give?
A: 50 nM

Q: With B5 as the binder, how does the IC50 read?
A: 174 nM

Q: Which IC50 does the source give for B6 here?
A: 25 nM

Q: B7 was tested. Which IC50 did it give?
A: 29 nM

Q: Which IC50 does the source give for B8 here?
A: 333 nM

Q: Which IC50 does the source give for B9 here?
A: 40 nM

Q: How did the IC50 turn out when B10 was run?
A: 54 nM

Q: With B11 as the binder, how does the IC50 read?
A: 143 nM

Biological target: T1, human GLP-1 receptor
Assay: SPA, displacement of 125I-GLP-1(7-36)NH2 from hGLP-1R BHK membranes, low HSA (0.001%)
Description: as §1, §2

Q: B1 was tested. Which IC50 did it give?
A: 0.15 nM

Q: For B2, which IC50 is on record?
A: 0.19 nM

Q: How did the IC50 turn out when B3 was run?
A: 0.23 nM

Q: With B4 as the binder, how does the IC50 read?
A: 2.74 nM

Q: With B5 as the binder, how does the IC50 read?
A: 0.45 nM

Q: B6 was tested. Which IC50 did it give?
A: 0.2 nM

Q: For B7, which IC50 is on record?
A: 0.2 nM

Q: For B8, which IC50 is on record?
A: 0.19 nM

Q: How did the IC50 turn out when B9 was run?
A: 0.85 nM

Q: With B10 as the binder, how does the IC50 read?
A: 0.38 nM

Q: How did the IC50 turn out when B11 was run?
A: 2.38 nM
